{"source": "paper PMC10567836", "target": "CD45 on human peripheral blood mononuclear cells (human (endogenous in PBMC)) (UniProt P08575)", "sequence (P08575 26-1306)": "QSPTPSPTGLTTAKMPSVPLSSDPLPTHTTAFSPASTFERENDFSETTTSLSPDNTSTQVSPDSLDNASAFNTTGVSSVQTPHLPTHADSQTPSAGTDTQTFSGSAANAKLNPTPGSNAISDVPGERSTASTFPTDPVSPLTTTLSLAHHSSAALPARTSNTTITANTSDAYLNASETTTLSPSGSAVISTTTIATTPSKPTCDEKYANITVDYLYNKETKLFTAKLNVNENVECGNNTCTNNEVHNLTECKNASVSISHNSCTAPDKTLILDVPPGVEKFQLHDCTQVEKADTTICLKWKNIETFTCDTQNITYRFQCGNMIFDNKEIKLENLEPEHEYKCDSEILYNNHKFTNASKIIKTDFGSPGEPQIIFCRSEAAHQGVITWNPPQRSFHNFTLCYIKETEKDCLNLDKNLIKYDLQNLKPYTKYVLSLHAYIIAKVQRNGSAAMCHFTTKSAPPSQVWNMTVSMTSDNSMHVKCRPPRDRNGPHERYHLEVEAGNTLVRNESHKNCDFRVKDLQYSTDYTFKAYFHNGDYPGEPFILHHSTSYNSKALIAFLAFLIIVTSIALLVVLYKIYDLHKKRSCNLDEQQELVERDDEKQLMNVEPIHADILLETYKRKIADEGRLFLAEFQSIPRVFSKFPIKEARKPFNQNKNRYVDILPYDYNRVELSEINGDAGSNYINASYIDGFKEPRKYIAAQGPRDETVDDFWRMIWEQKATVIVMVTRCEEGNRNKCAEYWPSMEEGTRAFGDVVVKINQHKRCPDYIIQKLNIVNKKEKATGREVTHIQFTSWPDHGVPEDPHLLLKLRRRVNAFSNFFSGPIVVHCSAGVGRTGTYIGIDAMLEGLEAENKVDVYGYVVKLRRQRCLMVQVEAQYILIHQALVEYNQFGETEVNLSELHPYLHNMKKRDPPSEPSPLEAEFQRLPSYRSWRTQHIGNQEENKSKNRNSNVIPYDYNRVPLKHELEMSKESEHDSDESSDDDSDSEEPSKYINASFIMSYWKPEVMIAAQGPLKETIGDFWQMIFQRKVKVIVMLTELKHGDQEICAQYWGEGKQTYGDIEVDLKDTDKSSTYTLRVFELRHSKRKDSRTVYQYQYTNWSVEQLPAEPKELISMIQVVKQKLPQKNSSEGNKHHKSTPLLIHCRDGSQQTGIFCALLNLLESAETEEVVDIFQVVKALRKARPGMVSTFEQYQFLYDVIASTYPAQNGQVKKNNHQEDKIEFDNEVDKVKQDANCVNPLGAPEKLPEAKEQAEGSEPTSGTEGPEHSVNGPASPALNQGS", "data": [{"substance": "HAdV-D64 (Ad19a) protein E3/49K expressed on porcine L23 cells (natural protein)", "values": [{"measurement": "phosphorylated p56lck(p505) in CD4+ T cells of human PBMC stimulated for 48 h with L23-E3/49K cells (15–20% with L23-control or L23-UL11 cells), intracellular flow cytometry (% of CD4+ T cells)", "result": 40}]}]}
